The target of series [1] is BT8, RyR2 extreme C-terminal domain (bait) (human). The series is described as follows: two-hybrid; GAL4 system in yeast; quantitative liquid culture β-Gal assay (ONPG), 30 °C; normalized against the positive control pVA3 + pTD1.
Series [2] deals with the molecule itself. In words: cross-linking; glutaraldehyde (0.0025% v/v, 0-60 min, RT) on HEK293 cell homogenate treated with dithiothreitol; SDS-PAGE and blot with Ab^cMyc.

A value given as a limit tells only on which side of the number the result lay.

With “RyR2 N-terminal fragment (RyR2 residues 1 - 906), GAL4 fusions for yeast two-hybrid (from UniProt Q92736 1-906) (domain or fragment)”, the β-Gal activity, percent of the positive control (pVA3 + pTD1) in series [1] was less than 10%.

B1: RyR2 N-terminus domain (residues 1 - 906), cMyc-tagged (BT4L) or HA-tagged (AD4L), expressed in HEK293 (domain or fragment, human, UniProt Q92736 1-906, looked up)
chain: MADGGEGEDEIQFLRTDDEVVLQCTATIHKEQQKLCLAAEGFGNRLCFLESTSNSKNVPPDLSICTFVLEQSLSVRALQEMLANTVEKSEGQVDVEKWKFMMKTAQGGGHRTLLYGHAILLRHSYSGMYLCCLSTSRSSTDKLAFDVGLQEDTTGEACWWTIHPASKQRSEGEKVRVGDDLILVSVSSERYLHLSYGNGSLHVDAAFQQTLWSVAPISSGSEAAQGYLIGGDVLRLLHGHMDECLTVPSGEHGEEQRRTVHYEGGAVSVHARSLWRLETLRVAWSGSHIRWGQPFRLRHVTTGKYLSLMEDKNLLLMDKEKADVKSTAFTFRSSKEKLDVGVRKEVDGMGTSEIKYGDSVCYIQHVDTGLWLTYQSVDVKSVRMGSIQRKAIMHHEGHMDDGISLSRSQHEESRTARVIRSTVFLFNRFIRGLDALSKKAKASTVDLPIESVSLSLQDLIGYFHPPDEHLEHEDKQNRLRALKNRQNLFQEEGMINLVLECIDRLHVYSSAAHFADVAGREAGESWKSILNSLYELLAALIRGNRKNCAQFSGSLDWLISRLERLEASSGILEVLHCVLVESPEALNIIKEGHIKSIISLLDKHGRNHKVLDVLCSLCVCHGVAVRSNQHLICDNLLPGRDLLLQTRLVNHVSSMRPNIFLGVSEGSAQYKKWYYELMVDHTEPFVTAEATHLRVGWASTEGYSPYPGGGEEWGGNGVGDDLFSYGFDGLHLWSGCIARTVSSPNQHLLRTDDVISCCLDLSAPSISFRINGQPVQGMFENFNIDGLFFPVVSFSAGIKVRFLLGGRHGEFKFLPPPGYAPCYEAVLPKEKLKVEHSREYKQERTYTRDLLGPTVSLTQAAFTPIPVDTSQIVLPPHLERIREKLAENIHELWVMNKIELGWQYGP
notes: ryanodine receptor 2 (RyR2), human, residues 1-906; Two copies of the same stretch, each with ONE tag: in the co-IP cMyc-BT4L and HA-AD4L were co-expressed; in the cross-linking cMyc-BT4L was expressed alone; also called cMyc-BT4L; source: HEK293, transiently transfected (calcium phosphate), in lysate or homogenate
Broadly, the stoichiometry N is a count of units in the complex or per binding partner. Take B1: the “stoichiometry N” value in series [2] amounted to 4.

Values taken from paper PMC5065051, “Genetic and Biochemical Approaches for In Vivo and In Vitro Assessment of Protein Oligomerization: The Ryanodine Receptor Case Study” (Journal of Visualized Experiments : JoVE, 2016).
